In patent publication CN117069831A (SHENZHEN BGI LIFE SCIENCE RES INSTITUTE, dated 2023):

What was measured:
野生型SARS-CoV-2 S1抗原 = target: T1, 野生型SARS-CoV-2 S1抗原 (SARS-CoV-2, UniProt P0DTC2 16-685); test: SPR, Biacore T200, antigen coupled to CM5 chip, nanobody as analyte
T1 construct: domain: S1; also called SARS-CoV-2S1野生型; S1抗原(义翘)

非典SARS-CoV-1 spike RBD = target: T2, 非典SARS-CoV-1 spike RBD (SARS-CoV-1, UniProt P59594 306-527); test: ELISA on coated antigen, anti HA HRP
T2 construct: domain: RBD; also called 非典病毒RBD; 非典SARS-CoV-1RBD

B1: R-30 (VHH)
VHH: QVQLQESGGGLVQSGGSLRLSCTASGGIIRLNSMGWYRQAPGKQREPVATIVSDVGTNYADSVKGRFTISRDNAKNTIYLQMNSLKFEDTAVYYCVADRAFVLRGEYEYWGQGTQVTVSS
notes: also called 第一株RBD纳米抗体R-30
野生型SARS-CoV-2 S1抗原
  Kd: ~0.1 nM
非典SARS-CoV-1 spike RBD
  EC50: 14.7 nM

B2: S1-24 (VHH)
VHH: QVQLQESGGGLVQSGGSLRLSCAASGGVSRLNSMGWYRQAQGKQRELVATIVNDVGTNYADSVKGRFTISRDNAANTVYLLMNSLKFEDTAVYNCVADRAFVLRGEYEYWGQGTQVTVSS
notes: also called 第四株RBD纳米抗体S1-24
野生型SARS-CoV-2 S1抗原
  Kd: ~0.1 nM
非典SARS-CoV-1 spike RBD
  EC50: 49.3 nM

B3: S1-51 (VHH)
VHH: QVQLQESGGGLVQSGGSLRLSCAASGGVSRLNSMGWYRQAPGKQRELVATIISDVGTNYADSVKGRFTISRDNAANTVYLQMNSLKFEDTAVYYCVADRAFVLRGEYEYWGQGTQVTVSS
notes: also called 第三株RBD纳米抗体S1-51
野生型SARS-CoV-2 S1抗原
  Kd: ~0.1 nM
非典SARS-CoV-1 spike RBD
  EC50: 19.2 nM

B4: S1-28 (VHH)
VHH: QVQLQESGGGLVQPGGSLRLSCTASGGIIRLNSMGWYRQAPGKQREPVATIVSDVGTNYADSVKGRFTISRDNAKNTIYLQMNSPKFEDTAVYYCVADRAFVLRGEYEYWGQGTQVTVSS
notes: also called 第二株RBD纳米抗体S1-28
野生型SARS-CoV-2 S1抗原
  Kd: ~0.1 nM
非典SARS-CoV-1 spike RBD
  EC50: 11.4 nM
